Where a chain is given by its changes, count along the chain named. Values joined by “and” are separate entries in the source; they are usually repeats but may differ in a detail not shown here. Identical values can stand only once. Like-named read-outs stand apart in the source and are kept apart here. Blank lines part the entries; values can stand above or below the molecule they belong to.
Legend:
human Factor XII = biological target: T1, human Factor XII (human, UniProt P00748 20-615); experiment: SPR (Biacore), purified IgG captured on anti-mouse Fc antibody, FXII 0-500 nM, 1:1 fit, 25 C
T1 construct: Zymogen bought from Enzyme Research Laboratories; also called FXII
T1 sequence: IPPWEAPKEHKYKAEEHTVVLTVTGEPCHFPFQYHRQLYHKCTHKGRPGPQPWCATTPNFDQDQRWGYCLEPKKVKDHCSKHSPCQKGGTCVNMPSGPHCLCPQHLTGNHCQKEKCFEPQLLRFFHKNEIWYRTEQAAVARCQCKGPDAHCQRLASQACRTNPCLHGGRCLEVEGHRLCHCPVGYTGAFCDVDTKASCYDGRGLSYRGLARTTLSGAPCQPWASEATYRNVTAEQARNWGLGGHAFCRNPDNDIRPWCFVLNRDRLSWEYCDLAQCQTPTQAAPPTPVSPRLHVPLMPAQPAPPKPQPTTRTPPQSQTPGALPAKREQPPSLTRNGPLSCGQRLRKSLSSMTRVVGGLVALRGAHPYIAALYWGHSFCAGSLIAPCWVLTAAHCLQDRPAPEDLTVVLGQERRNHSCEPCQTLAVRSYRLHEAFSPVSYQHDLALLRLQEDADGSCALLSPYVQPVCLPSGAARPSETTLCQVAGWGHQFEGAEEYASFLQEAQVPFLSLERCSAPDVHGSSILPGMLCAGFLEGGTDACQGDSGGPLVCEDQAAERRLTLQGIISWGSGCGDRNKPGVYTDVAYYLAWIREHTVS

human FXIIa [1] = biological target: T2, human FXIIa (human, UniProt P00748 20-615, limits assumed)
T2 sequence: T1 sequence

human Factor XIIa-beta [2] = biological target: T3, human Factor XIIa-beta (human, UniProt P00748 354-615, limits assumed); experiment: SPR (Biacore), purified IgG captured on anti-mouse Fc antibody, FXIIa beta 0-40 nM, 1:1 fit, 25 C
T3 construct: Bought from Enzyme Research Laboratories; also called FXIIa beta; FXIIa-beta
T3 sequence: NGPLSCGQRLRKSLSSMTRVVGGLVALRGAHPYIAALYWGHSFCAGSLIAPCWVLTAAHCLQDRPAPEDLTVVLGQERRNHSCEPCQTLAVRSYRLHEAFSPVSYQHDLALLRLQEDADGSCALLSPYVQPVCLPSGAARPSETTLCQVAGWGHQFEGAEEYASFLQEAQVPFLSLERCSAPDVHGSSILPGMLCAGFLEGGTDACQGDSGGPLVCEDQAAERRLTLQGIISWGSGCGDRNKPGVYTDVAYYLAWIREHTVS

human Factor XIIa-alpha = biological target: T4, human Factor XIIa-alpha (human, UniProt P00748 20-615); experiment: cell-based or functional assay
T4 sequence: T1 sequence

human FXIIa [3] = biological target: T2, human FXIIa; remark: listed apart in the source
human FXIIa [4] = biological target: T2, human FXIIa; experiment: competition phage ELISA on plate-coated FXIIa; competed binder: 3H4 Fab-phage at a fixed amount
human FXIIa [5] = biological target: T2, human FXIIa; experiment: competition phage ELISA on plate-coated FXIIa; competed binder: Inf4-phage (pTacInf4) at a fixed amount
human FXIIa [6] = biological target: T2, human FXIIa; experiment: competition phage ELISA on plate-coated FXIIa; competed binder: 3F7 Fab-phage at a fixed amount
human Factor XIIa-beta [7] = biological target: T3, human Factor XIIa-beta; experiment: SPR (Biacore), purified IgG4 captured on anti-human IgG, FXIIa beta 0-40 nM, 1:1 fit, 25 C
human Factor XIIa-beta [8] = biological target: T3, human Factor XIIa-beta; experiment: SPR (Biacore A100), unpurified IgG4 supernatant captured on anti-human IgG, single FXIIa beta concentration (100 nM), 37 C, 1:1 fit; estimated
Experimental: Anti-human (Goat anti-human IgG (gamma) mouse adsorbed, Invitrogen, Cat No. H10500) was chemically immobilised on a CM-5 sensor surface using amine coupling chemistry. Culture supernatants were diluted 1/60 with running buffer before capture. Antibodies were captured for 180 seconds representing an average capture of 800 response units (RU). FXIIa beta was then injected at zero and 100 nM for 180 seconds, and dissociated for 180 seconds. All assays were conducted on a Biacore A100 instrument at 37 degrees Celsius and the data fitted to a 1:1 kinetic model.

human Factor XIIa-beta [9] = biological target: T3, human Factor XIIa-beta; experiment: SPR (Biacore), KD against parental 3F7

Kd (human Factor XII): 0.69 nM | m3 (parameter of the curve fit, printed in the legend box; x axis Ab in nM) of the inhibition of FXIIa amidolytic activity, OD405 (human FXIIa [1]): 12.9 and 13.5 | Kd (human Factor XIIa-beta [2]): 0.76 nM | % Inhibition, ratio FXIIa-alpha:Antibody 1:0.1 (human Factor XIIa-alpha): 21.6% | % Inhibition, ratio FXIIa-alpha:Antibody 1:0.2 (human Factor XIIa-alpha): 37.7% | % Inhibition, ratio FXIIa-alpha:Antibody 1:0.5 (human Factor XIIa-alpha): 76.6% | % Inhibition, ratio FXIIa-alpha:Antibody 1:1 (human Factor XIIa-alpha): 92.7% | % Inhibition, ratio FXIIa-alpha:Antibody 1:2 (human Factor XIIa-alpha): 96.9% | % Inhibition, ratio FXIIa-alpha:Antibody 1:5 (human Factor XIIa-alpha): 100% | % Inhibition, ratio FXIIa-alpha:Antibody 1:10 (human Factor XIIa-alpha): 100%
Molecule: Anti-human FXII antibody (OT-2)

IC50 (read off the curve) (human FXIIa [3]): 9 nM | IC50 (read off the curve) (human FXIIa [4]): 5 nM | IC50 (read off the curve) (human FXIIa [5]): 3 nM | IC50 (read off the curve) (human FXIIa [6]): 5 nM | % Inhibition, ratio FXIIa-alpha:inhibitor 1:1 (human Factor XIIa-alpha): 90%
Molecule: rHA-Infestin-4 (recombinant Infestin-4 fused to human albumin)

Kd (human Factor XIIa-beta [7]): 0.35 nM | koff (human Factor XIIa-beta [7]): 3.9e-05 s⁻¹ | kon (human Factor XIIa-beta [7]): 110000 M⁻¹ s⁻¹ | Kd (human Factor XIIa-beta [8]): 2.04 nM | Fold affinity improvement (human Factor XIIa-beta [9]): 25 fold | % Inhibition, ratio FXIIa-alpha:Antibody 1:0.1 (human Factor XIIa-alpha): 33.7% | % Inhibition, ratio FXIIa-alpha:Antibody 1:0.2 (human Factor XIIa-alpha): 66.9% | % Inhibition, ratio FXIIa-alpha:Antibody 1:0.5 (human Factor XIIa-alpha): 100% | % Inhibition, ratio FXIIa-alpha:Antibody 1:1 (human Factor XIIa-alpha): 100% | % Inhibition, ratio FXIIa-alpha:Antibody 1:2 (human Factor XIIa-alpha): 100% | % Inhibition, ratio FXIIa-alpha:Antibody 1:5 (human Factor XIIa-alpha): 100% | % Inhibition, ratio FXIIa-alpha:Antibody 1:10 (human Factor XIIa-alpha): 100%
B1: VR110 (antibody, V domains shown)
VH: EVQLLESGGGLVQPGGSLRLSCAASGFTFSKYIMQWVRQAPGKGLEWVSGIDMPTKGTVYADSVKGRFTISRDNSKNTLYLQMNSLRAEDTAVYYCARALPRSGYLISPHYYYYALDVWGQGTTVTVSS
VL: QSELTQPPSASGTPGQRVTISCSGSSSNIGRNYVYWYQQVPGTAPKLLIYSNNQRPSGVPDRFSGSKSGTSASLVISGLRSEDEADYYCAAWDASLRGVFGGGTKLTVLG

Kd (human Factor XIIa-beta [8]): 5.81 nM
B2: VR62 (antibody, V domains shown)
VH: B1 VH with D52R, M53P, P54S, T55G, K56G, G57T
VL: QSVLTQPPSASGTPGQRVTISCSGSSSNIGRNYVYWYQQLPGTAPKLLIYSNNQRPSGVPDRFSGSKSGTSASLAISGLRSEDEADYYCAAWDQQVRLDFGGGTKLTVL
notes: Libraries were built on germline stop templates, so frameworks may differ

Kd (human Factor XIIa-beta [7]): 0.26 nM | koff (human Factor XIIa-beta [7]): 6.4e-05 s⁻¹ | kon (human Factor XIIa-beta [7]): 240000 M⁻¹ s⁻¹ | Kd (human Factor XIIa-beta [8]): 1.63 nM | Fold affinity improvement (human Factor XIIa-beta [9]): 33 fold | % Inhibition, ratio FXIIa-alpha:Antibody 1:0.1 (human Factor XIIa-alpha): 34.5% | % Inhibition, ratio FXIIa-alpha:Antibody 1:0.2 (human Factor XIIa-alpha): 67.3% | % Inhibition, ratio FXIIa-alpha:Antibody 1:0.5 (human Factor XIIa-alpha): 99.7% | % Inhibition, ratio FXIIa-alpha:Antibody 1:1 (human Factor XIIa-alpha): 100% | % Inhibition, ratio FXIIa-alpha:Antibody 1:2 (human Factor XIIa-alpha): 100% | % Inhibition, ratio FXIIa-alpha:Antibody 1:5 (human Factor XIIa-alpha): 100% | % Inhibition, ratio FXIIa-alpha:Antibody 1:10 (human Factor XIIa-alpha): 100%
B3: VR24 (antibody, V domains shown)
VH: B1 VH with D52R, M53P, P54S, T55G, K56G, G57T
VL: B1 VL with E3V, S27E, N28M, I29T, G30V, R31H, N32H, V40L, V75A

Kd (human Factor XIIa-beta [8]): 5.63 nM
B4: VR39 (antibody, V domains shown)
VH: B1 VH with D52R, M53P, P54S, T55G, K56G, G57T
VL: B2 VL with A91S, D93W, Q94N, Q95D, V96L, L98G, D99V
notes: as for B2

Kd (human Factor XIIa-beta [7]): 0.36 nM | koff (human Factor XIIa-beta [7]): 5.9e-05 s⁻¹ | kon (human Factor XIIa-beta [7]): 160000 M⁻¹ s⁻¹ | Kd (human Factor XIIa-beta [8]): 1.31 nM | Fold affinity improvement (human Factor XIIa-beta [9]): 24 fold
B5: VR119 (antibody, V domains shown)
VH: B1 VH with D52N, M53V, T55L, K56Y
VL: B1 VL

Kd (human Factor XIIa-beta [8]): 5.12 nM
B6: VR149 (antibody, V domains shown)
VH: B1 VH with D52R, M53P, P54S, T55G, K56G, G57T, I107M, S108K, P109K, H110N
VL: B1 VL
notes: as for B2

Kd (human Factor XIIa-beta [8]): 7.1 nM
B7: VR52 (antibody, V domains shown)
VH: B1 VH with D52R, M53P, P54S, T55G, K56G, G57T
VL: B2 VL with Q94E, Q95R, D99M
notes: as for B2

Kd (human Factor XIIa-beta [8]): 5.8 nM
B8: VR167 (antibody, V domains shown)
VH: B1 VH with D52R, M53P, P54S, T55G, K56G, G57T, I107M, S108K, P109T, H110G
VL: B1 VL
notes: as for B2

Kd (human Factor XIIa-beta [8]): 6.22 nM
B9: VR14 (antibody, V domains shown)
VH: B1 VH with D52R, M53P, P54S, T55G, K56G, G57T
VL: B2 VL with S27G, N28M, I29V, G30E, R31Q, Q94A, Q95S, V96L, L98G, D99V
notes: as for B2

Kd (human Factor XIIa-beta [7]): 0.17 nM | koff (human Factor XIIa-beta [7]): 4.3e-05 s⁻¹ | kon (human Factor XIIa-beta [7]): 250000 M⁻¹ s⁻¹ | Kd (human Factor XIIa-beta [8]): 1.52 nM | Fold affinity improvement (human Factor XIIa-beta [9]): 51 fold | % Inhibition, ratio FXIIa-alpha:Antibody 1:0.1 (human Factor XIIa-alpha): 39.9% | % Inhibition, ratio FXIIa-alpha:Antibody 1:0.2 (human Factor XIIa-alpha): 68.7% | % Inhibition, ratio FXIIa-alpha:Antibody 1:0.5 (human Factor XIIa-alpha): 99.7% | % Inhibition, ratio FXIIa-alpha:Antibody 1:1 (human Factor XIIa-alpha): 100% | % Inhibition, ratio FXIIa-alpha:Antibody 1:2 (human Factor XIIa-alpha): 100% | % Inhibition, ratio FXIIa-alpha:Antibody 1:5 (human Factor XIIa-alpha): 100% | % Inhibition, ratio FXIIa-alpha:Antibody 1:10 (human Factor XIIa-alpha): 100%
B10: VR112 (antibody, V domains shown)
VH: B1 VH with D52N, M53V, T55V, K56Q
VL: B1 VL

Kd (human Factor XIIa-beta [8]): 6.67 nM
B11: VR46 (antibody, V domains shown)
VH: B1 VH with D52R, M53P, P54S, T55G, K56G, G57T
VL: B2 VL with A91S, D93E, Q94L, Q95P, V96L, L98G, D99V
notes: as for B2

Kd (human Factor XIIa-beta [7]): 0.15 nM | koff (human Factor XIIa-beta [7]): 2.5e-05 s⁻¹ | kon (human Factor XIIa-beta [7]): 170000 M⁻¹ s⁻¹ | Kd (human Factor XIIa-beta [8]): 1.56 nM | Fold affinity improvement (human Factor XIIa-beta [9]): 57 fold | % Inhibition, ratio FXIIa-alpha:Antibody 1:0.1 (human Factor XIIa-alpha): 39.4% | % Inhibition, ratio FXIIa-alpha:Antibody 1:0.2 (human Factor XIIa-alpha): 72.8% | % Inhibition, ratio FXIIa-alpha:Antibody 1:0.5 (human Factor XIIa-alpha): 100% | % Inhibition, ratio FXIIa-alpha:Antibody 1:1 (human Factor XIIa-alpha): 100% | % Inhibition, ratio FXIIa-alpha:Antibody 1:2 (human Factor XIIa-alpha): 100% | % Inhibition, ratio FXIIa-alpha:Antibody 1:5 (human Factor XIIa-alpha): 100% | % Inhibition, ratio FXIIa-alpha:Antibody 1:10 (human Factor XIIa-alpha): 100%
B12: VR115 (antibody, V domains shown)
VH: B1 VH with M53I
VL: B1 VL

Kd (human Factor XIIa-beta [8]): 7.13 nM
B13: VR160 (antibody, V domains shown)
VH: B1 VH with D52R, M53P, P54S, T55G, K56G, G57T, I107M, S108K, H110G
VL: B1 VL
notes: as for B2

Kd (human Factor XIIa-beta [8]): 7.05 nM
B14: VR53 (antibody, V domains shown)
VH: B1 VH with D52R, M53P, P54S, T55G, K56G, G57T
VL: B2 VL with L98K, D99T
notes: as for B2

Kd (human Factor XIIa-beta [8]): 6.93 nM
B15: VR159 (antibody, V domains shown)
VH: B1 VH with D52R, M53P, P54S, T55G, K56G, G57T, I107V, S108K, P109H, H110G
VL: B1 VL
notes: as for B2

Kd (human Factor XIIa-beta [8]): 5.33 nM
B16: VR58 (antibody, V domains shown)
VH: B1 VH with D52R, M53P, P54S, T55G, K56G, G57T
VL: B2 VL with Q94P, D99A
notes: as for B2
